Source: patent US10577424 (BEIJING MABWORKS BIOTECH, dated 2020)
Read-outs that look alike come from different tables or passages of the source.

T1: mouse VISTA expressed on HEK293A cells (mouse, UniProt Q9D659 33-308)
T1 construct: also called HEK293A/mouseVISTA; HEK293A/mouse VISTA
T1 sequence: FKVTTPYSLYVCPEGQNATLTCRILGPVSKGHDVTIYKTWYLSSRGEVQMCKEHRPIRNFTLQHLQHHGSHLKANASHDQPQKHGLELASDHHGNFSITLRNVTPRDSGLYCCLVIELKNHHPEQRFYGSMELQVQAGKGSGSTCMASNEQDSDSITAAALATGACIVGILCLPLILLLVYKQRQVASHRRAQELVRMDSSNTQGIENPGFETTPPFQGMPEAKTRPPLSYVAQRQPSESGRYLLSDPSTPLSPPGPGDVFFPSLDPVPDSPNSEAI

T2: mouse VISTA-his (Sino Biological, Cat #:511550-M08H) (mouse, UniProt Q9D659 33-191)
T2 construct: extracellular domain; Bought protein; also called muVISTA-his; mouse VISTA (ECD)-his; not shown: his tag
T2 sequence (looked up): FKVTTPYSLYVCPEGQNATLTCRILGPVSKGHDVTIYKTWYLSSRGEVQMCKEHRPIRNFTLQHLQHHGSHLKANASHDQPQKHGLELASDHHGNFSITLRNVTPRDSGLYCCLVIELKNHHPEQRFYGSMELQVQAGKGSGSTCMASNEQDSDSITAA

T3: human VISTA (ECD)-his (Sino Biological, Cat #:13482-H08H) (human, UniProt Q9H7M9 33-194)
T3 construct: extracellular domain; Bought protein; also called hVISTA(ECD)-his; recombinant human VISTA(ECD)-his; not shown: his tag
T3 sequence (looked up): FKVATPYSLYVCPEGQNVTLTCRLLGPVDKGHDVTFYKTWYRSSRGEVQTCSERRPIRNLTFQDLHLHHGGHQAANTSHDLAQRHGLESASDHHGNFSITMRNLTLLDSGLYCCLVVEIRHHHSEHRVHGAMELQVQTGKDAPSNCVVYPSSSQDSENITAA


What was measured:
[1] = biological target: T1, mouse VISTA expressed on HEK293A cells; test: FACS on HEK293A/mouse VISTA cells, MFI [panel C]
[2] = biological target: T2, mouse VISTA-his (Sino Biological, Cat …); test: ELISA, plate coated with mouse VISTA-his, OD450 [panel C]
[3] = biological target: T3, human VISTA (ECD)-his (Sino Biological, …); test: ELISA, plate coated with human VISTA (ECD)-his, OD450 [panel A]
[4] = biological target: T3, human VISTA (ECD)-his (Sino Biological, …); test: as above; remark: listed apart in the source
[5] = biological target: T4, monkey VISTA (ECD)-his (Sino Biological, Cat #: 90801-K08H) (cynomolgus monkey); test: ELISA, plate coated with monkey VISTA (ECD)-his, OD450 [panel B]
T4 construct: extracellular domain; Bought protein; also called cynoVISTA(ECD)-his; cynomolgus VISTA (ECD)-his

[6] = biological target: T4, monkey VISTA (ECD)-his (Sino …); test: as above; remark: listed apart in the source
[7] = biological target: T3, human VISTA (ECD)-his (Sino Biological, …); test: SPR (BIAcore 8K), human VISTA (ECD)-his coupled to the chip, antibody injected
Method: (§1) They were also tested in SPR assays for their binding affinities to human and monkey VISTA with the BIAcore™ 8K instrument (GE Life Sciences). Briefly, 100-200 response units (RU) of human VISTA (ECD)-his protein (Sino Biological, CN, Cat #:13482-H08H) or monkey VISTA (ECD)-his protein (Sino Biological, CN, Cat #:90801-K08H) were coupled to CM5 biosensor chips (Cat #: BR-1005-30, GE Life Sciences), followed by blocking of un-reacted groups with 1M ethanolamine. Serially diluted antibodies at concentrations ranging from 0.3 µM to 10 µM were injected into the SPR running buffer (HBS-EP buffer, pH7.4, GE Life Sciences; US; Cat #:BR-1006-69) at 30 µL/minute. The binding capacitities were calculated with the RUs of blank controls subtracted. The association rate (k_a) and dissociation rate (k_d) were calculated using the one-to-one Langmuir binding model (BIA Evaluation Software, GE Life Sciences). The equilibrium dissociation constant K_D was calculated as the k_d/k_a ratio.

[8] = biological target: T4, monkey VISTA (ECD)-his (Sino …); test: SPR (BIAcore 8K), monkey VISTA (ECD)-his coupled to the chip, antibody injected
Method: as §1

Binder	binding result [1]	binding result [2]	EC50 (read off the curve) [3] [µg/mL]	EC50 (read off the curve) [4] [µg/mL]	EC50 (read off the curve) [5] [µg/mL]	EC50 (read off the curve) [6] [µg/mL]	Kd [7] [nM]	Kd [8] [nM]
chimeric 161E5 antibody (antibody, human IgG1, kappa, V domains shown) VH: QVQLKQSGAELVRPGASVKLSCKASGYSFTDYYINWVKQRPGQGLEWIARIFPGSGNAYYNEKFKDKATLTVEKSSSAAYMQLSSLTSEDSAVYFCARDDSFYGYWYFDVWGTGTTVTVSS VL: NIMMTQSPSSLAVSAGEKVTMSCKSSQSVLYSSNQKNYLAWYQQKPGQSPKLLIYWASTRESGVPDRFTGSGSGTDFTLTISSVQAEDLAVYYCHQYLSSYTFGGGTKLEIKR	no binding (tested: log 4 ng/ml (10000 ng/ml))	no binding (tested: about log 4.3 ng/ml (about 20000 ng/ml))	~0.02	~0.03	~0.03	~0.03	0.0139	
161E5-VH2VL2 (antibody, human IgG1, kappa, V domains shown, One of the 5 humanized 161E5 antibodies, human IgG1/kappa; also called humanized antibody 161E5-VH2VL2) VH: QVQLVQSGAEVKKPGASVKVSCKASGYSFTDYYINWVRQAPGQGLEWIARIFPGSGNAYYNEKFKDRATLTVDKSTSTAYMELSSLRSEDTAVYYCARDDSFYGYWYFDVWGQGTTVTVSS VL: NIMMTQSPATLSVSPGERATLSCKSSQSVLYSSNQKNYLAWYQQKPGQAPRLLIYWASTRESGVPDRFSGSGSGTEFTLTISSLQSEDFAVYYCHQYLSSYTFGGGTKVEIKR				~0.03		~0.03		
161E5-VH0VL0 (antibody, human IgG1, kappa, V domains shown, One of the 5 humanized 161E5 antibodies, human IgG1/kappa; also called humanized antibody 161E5-VH0VL0) VH: QVQLVQSGAEVKKPGASVKVSCKASGYSFTDYYINWVRQAPGQGLEWMGRIFPGSGNAYYNEKFKDRVTMTRDTSTSTVYMELSSLRSEDTAVYYCARDDSFYGYWYFDVWGQGTTVTVSS VL: EIVMTQSPATLSVSPGERATLSCKSSQSVLYSSNQKNYLAWYQQKPGQAPRLLIYWASTRESGIPARFSGSGSGTEFTLTISSLQSEDFAVYYCHQYLSSYTFGGGTKVEIKR				~0.03		~0.03		
161E5-VH2VL3 (antibody, human IgG1, kappa, V domains shown, One of the 5 humanized 161E5 antibodies, human IgG1/kappa; also called humanized antibody 161E5VH2VL3) VH: QVQLVQSGAEVKKPGASVKVSCKASGYSFTDYYINWVRQAPGQGLEWIARIFPGSGNAYYNEKFKDRATLTVDKSTSTAYMELSSLRSEDTAVYYCARDDSFYGYWYFDVWGQGTTVTVSS VL: NIMMTQSPATLSVSPGERATLSCKSSQSVLYSSNQKNYLAWYQQKPGQSPRLLIYWASTRESGVPDRFSGSGSGTEFTLTISSLQSEDFAVYYCHQYLSSYTFGGGTKVEIKR				~0.03		~0.03	0.00236	0.0145
161E5-VH3VL2 (antibody, human IgG1, kappa, V domains shown, One of the 5 humanized 161E5 antibodies, human IgG1/kappa; also called humanized antibody 161E5-VH3VL2) VH: QVQLVQSGAEVKKPGASVKVSCKASGYSFTDYYINWVRQRPGQGLEWIARIFPGSGNAYYNEKFKDRATLTVDKSTSTAYMELSSLRSEDTAVYFCARDDSFYGYWYFDVWGQGTTVTVSS VL: NIMMTQSPATLSVSPGERATLSCKSSQSVLYSSNQKNYLAWYQQKPGQAPRLLIYWASTRESGVPDRFSGSGSGTEFTLTISSLQSEDFAVYYCHQYLSSYTFGGGTKVEIKR				~0.03		~0.03		
161E5-VH3VL3 (antibody, human IgG1, kappa, V domains shown, One of the 5 humanized 161E5 antibodies, human IgG1/kappa; also called humanized antibody 161E5VH3VL3) VH: QVQLVQSGAEVKKPGASVKVSCKASGYSFTDYYINWVRQRPGQGLEWIARIFPGSGNAYYNEKFKDRATLTVDKSTSTAYMELSSLRSEDTAVYFCARDDSFYGYWYFDVWGQGTTVTVSS VL: NIMMTQSPATLSVSPGERATLSCKSSQSVLYSSNQKNYLAWYQQKPGQSPRLLIYWASTRESGVPDRFSGSGSGTEFTLTISSLQSEDFAVYYCHQYLSSYTFGGGTKVEIKR				~0.03		~0.03	0.0226	0.0399
